For one substance, Kd and percent dissociated results are on record in article PMC2990918.

The target of this assay is normal undigested taxol microtubules (αβ-MTs) of porcine brain tubulin (porcine (brain)) (UniProt P02550). Put plainly: co-sedimentation.

Regarding “CLIP-170 MT-binding domain fragment H1^1–350 (from UniProt P30622 1-350) (domain or fragment)”, the Kd stood at 510 nM and the percent dissociated at 100 mM NaCl is 30%.
